Measurements reported in article PMC5143326.

Key:
LRP1 (Homo sapiens) = LRP1 (Homo sapiens) (UniProt Q07954); settings: cited from earlier work
[1] = target: low density lipoprotein receptor-related protein 1 (LRP1), purified from placenta; test: SPR; Biacore T100; LRP1 immobilised on CM5 chip at 3.4 fmol/mm2; CCN-2 or its fragments flowed over; 10 mM Hepes pH 7.4, 150 mM NaCl, 5 mM CaCl2, 0.005 % surfactant P20; 25 °C; affinity constants by steady-state analysis

Chain of UniProt Q07954 (Q07954 20-4544): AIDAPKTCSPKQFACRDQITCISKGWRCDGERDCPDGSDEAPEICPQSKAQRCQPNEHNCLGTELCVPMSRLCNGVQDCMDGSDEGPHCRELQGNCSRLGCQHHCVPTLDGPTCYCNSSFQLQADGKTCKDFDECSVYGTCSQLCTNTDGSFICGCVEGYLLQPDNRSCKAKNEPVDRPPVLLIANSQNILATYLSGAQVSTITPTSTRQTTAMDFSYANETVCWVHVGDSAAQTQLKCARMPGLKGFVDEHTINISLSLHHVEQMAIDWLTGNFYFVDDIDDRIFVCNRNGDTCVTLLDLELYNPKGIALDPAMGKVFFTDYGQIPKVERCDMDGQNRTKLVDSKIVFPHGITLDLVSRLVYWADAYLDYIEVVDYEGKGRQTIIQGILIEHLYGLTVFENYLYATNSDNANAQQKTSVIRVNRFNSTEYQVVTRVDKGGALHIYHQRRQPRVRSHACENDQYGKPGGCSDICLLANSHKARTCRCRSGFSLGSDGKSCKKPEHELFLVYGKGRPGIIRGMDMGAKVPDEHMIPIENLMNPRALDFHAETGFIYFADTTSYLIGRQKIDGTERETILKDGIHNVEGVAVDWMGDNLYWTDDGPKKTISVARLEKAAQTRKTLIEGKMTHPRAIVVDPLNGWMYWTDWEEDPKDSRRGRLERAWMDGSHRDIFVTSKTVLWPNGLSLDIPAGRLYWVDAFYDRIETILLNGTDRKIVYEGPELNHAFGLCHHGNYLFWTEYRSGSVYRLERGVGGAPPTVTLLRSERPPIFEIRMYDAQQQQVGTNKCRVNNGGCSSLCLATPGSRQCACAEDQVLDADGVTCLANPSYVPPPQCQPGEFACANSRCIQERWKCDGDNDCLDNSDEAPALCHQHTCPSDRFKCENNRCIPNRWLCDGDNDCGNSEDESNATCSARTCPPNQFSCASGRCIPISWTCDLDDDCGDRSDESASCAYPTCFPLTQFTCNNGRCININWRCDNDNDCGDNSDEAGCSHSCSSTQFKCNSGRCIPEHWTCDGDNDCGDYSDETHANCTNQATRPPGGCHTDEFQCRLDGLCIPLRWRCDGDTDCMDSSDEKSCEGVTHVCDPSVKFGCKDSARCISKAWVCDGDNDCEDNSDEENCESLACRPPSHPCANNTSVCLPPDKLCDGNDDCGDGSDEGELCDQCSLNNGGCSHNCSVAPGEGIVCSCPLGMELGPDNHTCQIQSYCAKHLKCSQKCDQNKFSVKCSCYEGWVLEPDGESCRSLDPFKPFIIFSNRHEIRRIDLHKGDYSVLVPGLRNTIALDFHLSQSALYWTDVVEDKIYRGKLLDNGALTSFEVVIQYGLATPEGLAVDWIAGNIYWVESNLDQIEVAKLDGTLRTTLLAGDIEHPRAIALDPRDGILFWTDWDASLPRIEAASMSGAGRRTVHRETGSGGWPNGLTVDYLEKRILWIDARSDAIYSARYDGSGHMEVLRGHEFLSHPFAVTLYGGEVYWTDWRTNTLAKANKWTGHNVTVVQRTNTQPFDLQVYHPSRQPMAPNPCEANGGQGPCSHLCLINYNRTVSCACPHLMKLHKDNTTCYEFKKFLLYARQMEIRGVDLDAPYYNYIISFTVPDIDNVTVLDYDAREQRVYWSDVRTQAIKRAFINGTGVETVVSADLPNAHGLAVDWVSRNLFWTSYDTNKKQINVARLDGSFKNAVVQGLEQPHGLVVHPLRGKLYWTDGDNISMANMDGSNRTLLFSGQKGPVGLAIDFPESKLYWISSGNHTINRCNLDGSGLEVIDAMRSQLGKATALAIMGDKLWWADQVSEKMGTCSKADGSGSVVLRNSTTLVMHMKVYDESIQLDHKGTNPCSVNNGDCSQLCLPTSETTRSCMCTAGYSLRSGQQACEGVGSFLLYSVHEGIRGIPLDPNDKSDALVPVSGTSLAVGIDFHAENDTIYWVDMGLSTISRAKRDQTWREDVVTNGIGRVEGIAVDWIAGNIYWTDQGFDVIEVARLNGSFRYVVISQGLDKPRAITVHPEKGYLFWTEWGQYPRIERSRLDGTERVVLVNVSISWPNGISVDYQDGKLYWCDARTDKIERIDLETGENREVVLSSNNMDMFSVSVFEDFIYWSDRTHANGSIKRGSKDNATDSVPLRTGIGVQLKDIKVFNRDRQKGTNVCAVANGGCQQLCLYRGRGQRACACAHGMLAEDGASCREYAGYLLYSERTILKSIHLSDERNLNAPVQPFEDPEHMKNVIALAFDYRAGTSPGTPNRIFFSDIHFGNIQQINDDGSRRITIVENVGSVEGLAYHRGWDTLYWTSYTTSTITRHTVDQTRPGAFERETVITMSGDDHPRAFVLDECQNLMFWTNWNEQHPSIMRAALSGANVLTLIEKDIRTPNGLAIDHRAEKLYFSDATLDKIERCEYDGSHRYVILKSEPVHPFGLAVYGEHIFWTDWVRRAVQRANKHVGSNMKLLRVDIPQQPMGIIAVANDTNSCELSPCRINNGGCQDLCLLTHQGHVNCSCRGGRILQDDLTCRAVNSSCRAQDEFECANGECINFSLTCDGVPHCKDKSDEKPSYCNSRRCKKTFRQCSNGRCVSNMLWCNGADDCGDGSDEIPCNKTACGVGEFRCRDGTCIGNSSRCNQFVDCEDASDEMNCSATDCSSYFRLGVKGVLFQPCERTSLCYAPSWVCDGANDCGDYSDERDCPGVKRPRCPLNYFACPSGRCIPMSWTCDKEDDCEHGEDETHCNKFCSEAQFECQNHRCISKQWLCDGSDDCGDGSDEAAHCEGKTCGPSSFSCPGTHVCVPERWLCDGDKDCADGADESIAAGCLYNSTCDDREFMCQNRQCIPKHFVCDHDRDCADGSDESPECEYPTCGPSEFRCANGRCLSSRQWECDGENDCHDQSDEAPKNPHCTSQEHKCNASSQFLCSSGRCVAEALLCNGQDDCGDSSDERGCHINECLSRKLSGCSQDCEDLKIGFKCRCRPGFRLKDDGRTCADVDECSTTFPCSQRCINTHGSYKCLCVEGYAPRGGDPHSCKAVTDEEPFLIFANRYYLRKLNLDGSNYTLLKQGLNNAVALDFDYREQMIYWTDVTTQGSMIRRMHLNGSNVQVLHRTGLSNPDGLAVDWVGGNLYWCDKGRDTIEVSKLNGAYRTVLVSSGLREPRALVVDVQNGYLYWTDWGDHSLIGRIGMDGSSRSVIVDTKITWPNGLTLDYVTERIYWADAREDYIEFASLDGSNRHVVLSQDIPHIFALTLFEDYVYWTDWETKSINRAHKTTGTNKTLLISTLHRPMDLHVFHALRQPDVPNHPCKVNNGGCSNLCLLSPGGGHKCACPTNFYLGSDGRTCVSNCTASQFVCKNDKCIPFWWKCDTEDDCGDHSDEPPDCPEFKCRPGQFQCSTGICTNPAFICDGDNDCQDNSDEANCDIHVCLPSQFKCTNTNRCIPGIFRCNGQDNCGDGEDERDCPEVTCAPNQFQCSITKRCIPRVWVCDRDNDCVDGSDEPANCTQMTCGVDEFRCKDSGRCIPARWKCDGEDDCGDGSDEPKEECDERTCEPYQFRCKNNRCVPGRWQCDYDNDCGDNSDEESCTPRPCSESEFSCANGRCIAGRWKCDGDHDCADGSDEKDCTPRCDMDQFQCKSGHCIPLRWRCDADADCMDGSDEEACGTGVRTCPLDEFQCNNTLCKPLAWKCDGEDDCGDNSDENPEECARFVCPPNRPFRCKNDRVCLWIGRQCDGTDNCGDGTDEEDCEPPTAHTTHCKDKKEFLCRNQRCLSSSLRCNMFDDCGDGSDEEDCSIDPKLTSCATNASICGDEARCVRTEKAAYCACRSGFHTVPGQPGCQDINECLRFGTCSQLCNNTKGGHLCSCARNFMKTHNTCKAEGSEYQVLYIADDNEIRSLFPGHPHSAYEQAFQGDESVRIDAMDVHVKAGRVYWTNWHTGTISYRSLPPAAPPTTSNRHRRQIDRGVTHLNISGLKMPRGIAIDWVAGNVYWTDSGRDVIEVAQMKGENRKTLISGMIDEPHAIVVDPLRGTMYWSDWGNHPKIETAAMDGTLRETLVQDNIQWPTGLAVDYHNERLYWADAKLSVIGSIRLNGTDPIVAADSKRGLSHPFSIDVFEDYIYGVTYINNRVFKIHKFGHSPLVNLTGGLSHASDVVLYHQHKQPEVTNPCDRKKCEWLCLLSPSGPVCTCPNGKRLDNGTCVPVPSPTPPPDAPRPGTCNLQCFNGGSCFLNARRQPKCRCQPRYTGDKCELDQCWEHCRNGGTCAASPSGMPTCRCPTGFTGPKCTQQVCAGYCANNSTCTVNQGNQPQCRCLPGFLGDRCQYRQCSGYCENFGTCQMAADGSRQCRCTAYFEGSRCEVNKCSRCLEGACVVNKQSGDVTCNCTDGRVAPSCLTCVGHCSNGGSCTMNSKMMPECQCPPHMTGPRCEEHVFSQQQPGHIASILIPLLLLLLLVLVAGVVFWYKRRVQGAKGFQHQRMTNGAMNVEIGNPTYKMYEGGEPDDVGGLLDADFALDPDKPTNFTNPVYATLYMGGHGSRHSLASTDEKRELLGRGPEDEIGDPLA

| Substance | Kd (LRP1 (Homo sapiens)) | Kd [1] |
| --- | --- | --- |
| RAP (from UniProt P30533) | 5.4 nM | – |
| recombinant human CCN-2 C-terminal fragment (domain 3 and 4) (domain or fragment) | – | 112 nM |
| recombinant human full length CCN-2 (connective tissue growth factor) (from UniProt P29279 27-349) (natural protein) | – | 116 nM |
